Measurements: patent US20020106690A1 (published 2002)
Substitutions are numbered along the chain they refer to. Names may count otherwise.

B1: Ste20p^S879A/S880A/P883A (protein)
chain: MSNDPSAVSELPDKDSLDNGISNDNERAMGGNGDGGDGLRLPRTTGTLNVNALQKGTNAAHEAGGYKSMDPAKNAETTNDDDNNVVSLDDPIQFTRVSSSSVISGMSSSMSPHSNIDETKSLEAVTPNINTSNITPDHSADNTFSTINASESDHQFNDTLLSKLSLTDSTETIENNATVKHQQPVASSTVNSNKSSTDIRRATPVSTPVISKPSMTTTPRQINSASHSLSNPKHKQHKPKVKPSKPEAKSKPVSVKKSFPSKNPLKNSSPPKKQTEKSYYSSSSKKRKSGSNSGTLRMKDVFTSFVQNIKRNSQDDKRASSSSNNSSSSSITTALRISTPYNAKHIHHVGVDSKTGEYTGLPEEWEKLLTSSGISKREQQQNMQAVMDIVKFYQDVTETNGEDKMFKTFNTTTGLPGSPQVSTPPANSFNKFPPSTSDSHNYGSRTGTPMSNHVMSPTLNTDSSSANGKFIPSRPAPKPPSSASASAPIIKSPVMNSAANVSPLKQTHAPTTPNRTSPNRSSISRNATLKKEEQPLPPIPPTKSKTSPIISTAHTPQQVAQSPKAPAQETVTTPTSKPAQARSLSKELNEKKREERERRKKQLYAKLNEICSDGDPSTKYANLVKIGQGASGGVYTAYEIGTNVSVAIKQMNLEKQPKKELIINEILVMKGSKHPNIVNFIDSYVLKGDLWVIMEYMEGGSLTDVVTHCILTEGQIGAVCRETLSGLEFLHSKGVLHRDIKSDNILLSMEGDIKLTDFGFCAQINELNLKRTTMVGTPYWMAPEVVSRKEYGPKVDIWSLGIMIIEMIEGEPPYLNETPLRALYLIATNGTPKLKEPENLSSSLKKFLDWCLCVEPEDRASATELLHDEYITEIAEANAALAALVKLARLKKVAENMDADEDNDDDNDNEHINKTNNCDDNNDSKETVNLDVTEDDKQK
B2: Ste20p^CLA4 (protein)
chain: B1 chain with A879K, A880D, A882T, A883S, V885L, K886E, L887W
B3: HA-Ste4p (other, Saccharomyces cerevisiae (yeast), UniProt P18851 1-423, looked up, not shown: small tags and cut ends)
chain: MAAHQMDSITYSNNVTQQYIQPQSLQDISAVEDEIQNKIEAARQESKQLHAQINKAKHKIQDASLFQMANKVTSLTKNKINLKPNIVLKGHNNKISDFRWSRDSKRILSASQDGFMLIWDSASGLKQNAIPLDSQWVLSCAISPSSTLVASAGLNNNCTIYRVSKENRVAQNVASIFKGHTCYISDIEFTDNAHILTASGDMTCALWDIPKAKRVREYSDHLGDVLALAIPEEPNSENSSNTFASCGSDGYTYIWDSRSPSAVQSFYVNDSDINALRFFKDGMSIVAGSDNGAINMYDLRSDCSIATFSLFRGYEERTPTPTYMAANMEYNTAQSPQTLKSTSSSYLDNQGVVSLDFSASGRLMYSCYTDIGCVVWDVLKGEIVGKLEGHGGRVTGVRSSPDGLAVCTGSWDSTMKIWSPGYQ
B4: Ste4p K55E mutant (other, Saccharomyces cerevisiae (yeast), UniProt P18851 1-423, looked up)
chain: B3 chain with K55E
modifications: 35S-labelled methionine
notes: In vitro-translated, 35S-labelled; also called STE4^K55E; 35S-Ste4p K55E
B5: Ste4p D62N mutant (other, Saccharomyces cerevisiae (yeast), UniProt P18851 1-423, looked up)
chain: B3 chain with D62N
modifications: 35S-labelled methionine
notes: In vitro-translated, 35S-labelled; also called STE4^D62N; 35S-Ste4p D62N
B6: GST fusion with the fragment from amino acid 819 to 939 of the Ste20p^S879A/S880A/P883A mutant (protein, not shown: a dimerising Fc or GST; large carriers; small tags and cut ends)
chain: PLRALYLIATNGTPKLKEPENLSSSLKKFLDWCLCVEPEDRASATELLHDEYITEIAEANAALAALVKLARLKKVAENMDADEDNDDDNDNEHINKTNNCDDNNDSKETVNLDVTEDDKQK
B7: Ste20p^495-888 (protein)
chain: MNSAANVSPLKQTHAPTTPNRTSPNRSSISRNATLKKEEQPLPPIPPTKSKTSPIISTAHTPQQVAQSPKAPAQETVTTPTSKPAQARSLSKELNEKKREERERRKKQLYAKLNEICSDGDPSTKYANLVKIGQGASGGVYTAYEIGTNVSVAIKQMNLEKQPKKELIINEILVMKGSKHPNIVNFIDSYVLKGDLWVIMEYMEGGSLTDVVTHCILTEGQIGAVCRETLSGLEFLHSKGVLHRDIKSDNILLSMEGDIKLTDFGFCAQINELNLKRTTMVGTPYWMAPEVVSRKEYGPKVDIWSLGIMIIEMIEGEPPYLNETPLRALYLIATNGTPKLKEPENLSSSLKKFLDWCLCVEPEDRASATELLHDEYITEIAEANSSLAPLVKLA

Tests used:
Ste4p, P18851 = target: T1, Ste4p, P18851
T1 chain: B3 chain

Ste20p = target: T2, Ste20p (Saccharomyces cerevisiae (yeast), UniProt Q03497 1-939); assay: co-immunoprecipitation from yeast extracts, anti-HA IP, Western blot
T2 construct: Full length Ste20p in yeast cells (endogenous, or from pDH166 / pSTE20-5); also called STE20^WT; wild-type Ste20p
T2 sequence: B1 chain with A879S, A880S, A883P
Description: Relative amounts of Ste20p and HA-Ste4p were determined in Western blots (see example in upper and middle panels) and quantified densitometrically (mean values ±SD, n=3) (lower panel). (B) Association of Ste5p with HA-Ste4p expressed from the STE4 promoter in cells deleted for STE4 . HA-Ste4p immunoprecipitates from exponentially growing (−) and pheromone-treated (90 minutes) (+) yeast cells were analyzed with antibodies to Ste5p (upper panel) or HA-Ste4p (lower panel). (C) Overexpression of Ste4p leads to binding to Ste20p. HA-Ste4p was overexpressed from the GAL1 promoter in cells deleted for STE20 (lane 1) or STE4 (lanes 2 and 3). […] Immunoprecipitates obtained with antibodies to Ste20p (lanes 1 and 2) or the HA-epitope (lanes 3 and 4) were analyzed for the presence of Ste20p (upper panel) and HA-Ste4p (lower panel). […] HA-Ste4p (lanes 1 and 2) and Ste20p (lanes 3 and 4) immunoprecipitates were analyzed for the presence of Ste20p (upper panel) and HA-Ste4p (lower panel) by Western blot analyses. […]
For the detection of Ste20p fragments, a secondary sheep antibody specific to rabbit immunoglobulin light chains and a tertiary HRP-conjugated donkey antibody to sheep IgG were obtained from The Binding Site, Lim. […] For quantitation, immunoblots were evaluated by integrating densitometry using an Epson ES 1200-C densitometer and the NIH Image 1.59 software.

GST-Ste20p FL = target: T3, GST-Ste20p FL (Saccharomyces cerevisiae (yeast), UniProt Q03497 1-939); assay: GST pull-down of in vitro-translated 35S-Ste4p mutant, with HA-Ste18p present
T3 construct: Purified on glutathione-Sepharose beads; also called GST fusion with full length Ste20p; not shown: glutathione S-transferase (GST), amino-terminal fusion partner
T3 sequence: B1 chain with A879S, A880S, A883P
Text: Interaction of Ste4p mutants with Ste20p and Ste5p. […] Relative amounts of the GST fusion proteins and of ³⁵S-Ste4p were quantified by densitometric evaluation of Western blots and autoradiographs, respectively. Data are given as percentage of binding of wild-type ³⁵S-Ste4p (mean values ±SD, n≧3).
The beads were then washed three times with PBS, separated by SDS-PAGE and analysed by autoradiography of Western blots. Results were confirmed in at least three independent experiments. Immunodetection and evaluation of immunoblots and radiographs were then performed as described above. Data obtained for ³⁵S-Ste4p were corrected for relative concentrations of the respective GST fusion proteins.

[1] = target: T4, Ste4p (Saccharomyces cerevisiae (yeast)) (UniProt P18851); assay: GST pull-down of in vitro-translated 35S-Ste4p with HA-Ste18p present; normalized against wild-type Ste20p 819-939
T4 sequence (35S-labelled methionine in the in vitro-translated form, looked up): B3 chain

| Binder | G1 arrest (Ste4p, P18851) | Mating efficiencies (%) (Ste4p, P18851) | Shmoo formation (Ste4p, P18851) | other results |
| --- | --- | --- | --- | --- |
| B1 | - | 0.039% | - | FUS1::lacZ expression (Ste4p, P18851): 14 |
| B2 | - | 0.016% | - | FUS1::lacZ expression (Ste4p, P18851): 11 |
| B3 |  |  |  | binding result (Ste20p): binds |
| B4 |  |  |  | binding result (GST-Ste20p FL): no binding |
| B5 |  |  |  | binding result (GST-Ste20p FL): no binding |
| B6 |  |  |  | Binding to 35S-Ste4p (%) [1]: 15.2% |
| B7 | + | 75.2% | + | FUS1::lacZ expression, Basal (Ste4p, P18851): 1.6; FUS1::lacZ expression, Induced (Ste4p, P18851): 148 |
